# In paper PMC2747011, “Soybean GmPHD-Type Transcription Regulators Improve Stress Tolerance in Transgenic Arabidopsis Plants”:
# T1: GST-GmPHD6 (Glycine max, UniProt I1L1N8 1-248)
# T1 sequence: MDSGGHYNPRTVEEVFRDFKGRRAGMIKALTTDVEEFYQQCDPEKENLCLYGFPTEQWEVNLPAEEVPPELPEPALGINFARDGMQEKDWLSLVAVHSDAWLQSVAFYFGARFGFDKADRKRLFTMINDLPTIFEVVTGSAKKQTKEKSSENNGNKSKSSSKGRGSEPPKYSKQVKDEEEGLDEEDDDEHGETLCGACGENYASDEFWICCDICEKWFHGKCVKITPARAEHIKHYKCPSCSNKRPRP
# T2: GST-GmPHD5 (Glycine max, UniProt Q06A75 1-252)
# T2 sequence: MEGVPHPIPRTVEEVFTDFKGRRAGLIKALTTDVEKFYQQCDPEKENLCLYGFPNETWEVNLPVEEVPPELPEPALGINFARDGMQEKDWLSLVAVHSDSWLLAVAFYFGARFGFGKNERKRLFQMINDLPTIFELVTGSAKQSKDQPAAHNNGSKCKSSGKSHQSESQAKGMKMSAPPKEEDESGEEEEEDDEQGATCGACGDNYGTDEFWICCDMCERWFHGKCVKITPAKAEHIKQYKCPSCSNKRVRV
# T3: GmPHD4 NV (Glycine max, UniProt I1M961 1-199)
# T3 sequence: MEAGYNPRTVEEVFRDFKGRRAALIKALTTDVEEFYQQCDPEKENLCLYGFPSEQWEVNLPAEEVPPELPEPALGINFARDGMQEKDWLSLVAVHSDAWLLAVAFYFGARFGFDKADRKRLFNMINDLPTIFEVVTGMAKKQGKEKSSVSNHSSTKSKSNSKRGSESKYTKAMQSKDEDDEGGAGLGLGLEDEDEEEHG
# T4: GmPHD4 N domain (Glycine max, UniProt I1M961 1-114)
# T4 sequence: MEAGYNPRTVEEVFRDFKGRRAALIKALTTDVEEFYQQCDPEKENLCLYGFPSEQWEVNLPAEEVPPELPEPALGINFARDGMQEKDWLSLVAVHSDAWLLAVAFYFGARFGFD
# B1: 5x GTGGAG probe (dsDNA)
# DNA 1: AATTCGGATCCGTGGAGGTGGAGGTGGAGGTGGAGGTGGAGGGTACCGAGCT
# DNA 2: CGGTACCCTCCACCTCCACCTCCACCTCCACCTCCACGGATCCG
# Legend:
# Conditions in all cases: protein: recombinant; tags: GST (N-term, pGEX-4T-1); strand 1 has 5' overhang AATT (4 nt) and 3' overhang AGCT (4 nt); strand 2 fully paired
# GST-GmPHD6 = molecular target: T1, GST-GmPHD6; assay: EMSA; reduced by 10x unlabeled probe; Binding buffer not given (EMSA as in ref. 59); probe annealed in 50 mM NaCl; competitor in ten-fold excess
# GST-GmPHD5 = molecular target: T2, GST-GmPHD5; assay: as above
# GmPHD4 NV = molecular target: T3, GmPHD4 NV; assay: EMSA; Binding buffer not given (EMSA as in ref. 59); probe annealed in 50 mM NaCl; competitor in ten-fold excess
# GmPHD4 N domain = molecular target: T4, GmPHD4 N domain; assay: EMSA; strong; Binding buffer not given (EMSA as in ref. 59); probe annealed in 50 mM NaCl; competitor in ten-fold excess
binder,measurement,setting,value
B1,binding result,GST-GmPHD6,binds
same,binding result,GST-GmPHD5,binds
same,binding result,GmPHD4 NV,no binding
same,binding result,GmPHD4 N domain,binds
